Reference: the supplement of paper PMC6757056
± gives the standard deviation of the averaged measurements.

B1: library; a variant is named by its letters at N, in order (parent)
chain: GCUGUCACCGGUGCUUGGUACGUUAUAUUCAGCCGGUCUGAUGAGUCUNNNNNNAGACGAAACAGC

Columns and labels:
(6R,S)-folinic acid [1] = variants of: B1; assay: FACS-Seq fitted mean relative fluorescence mCherry/BFP without ligand (log10 relative fluorescence); HEK293T overexpressing SLC46A1; higher = higher reporter protein expression; details: without (6R,S)-folinic acid; ligand present: no
Outline: (§1)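 Genomic DNA from 6 mCherry/BFP sort bins was PCR-amplified, barcoded and sequenced on MiSeq. The sorted cells were enriched HEK293T libraries, lentivirally transduced with a ribozyme-switch mCherry reporter and an EF1α-BFP marker, incubated with or without ligand for 48 h. Fluorescence derives from a normal fit to the bin counts. The fit was on log10(mCherry/BFP), and means were scaled to five spiked-in control ribozymes.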

(6R,S)-folinic acid [2] = variants of: B1; assay: normalized RNA/DNA level without ligand (relative to sTRSVctl = 100) (log10 (% of sTRSVctl)); HEK293T overexpressing SLC46A1; higher = less ribozyme self-cleavage, higher mRNA level; details: without (6R,S)-folinic acid; ligand present: no
Outline: (§2)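 Only sequences with at least 100 DNA reads were analyzed, from HEK293T cells transfected with 4 µg per 6-well well of ribozyme switch library plasmids 72 h before RNA extraction with EDTA. Any ligand was added 1 h before transfection. RNA level was defined as RNA over DNA reads, normalized to a spiked-in non-cleaving sequence or to the top sequences, then scaled and log-transformed. The top set was 25 sequences, and the scaling was ×100 followed by log10.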

(6R,S)-folinic acid [3] = variants of: B1; assay: FACS-Seq fitted mean relative fluorescence mCherry/BFP with ligand (log10 relative fluorescence); HEK293T overexpressing SLC46A1; ligand concentration (+) FACS-Seq: 6 mM; higher = higher reporter protein expression; details: with (6R,S)-folinic acid; ligand present: yes
Outline: as §1

(6R,S)-folinic acid [4] = variants of: B1; assay: normalized RNA/DNA level with ligand (relative to sTRSVctl = 100) (log10 (% of sTRSVctl)); HEK293T overexpressing SLC46A1; ligand concentration (+) RNA-Seq: 6 mM; higher = less ribozyme self-cleavage, higher mRNA level; details: with (6R,S)-folinic acid; ligand present: yes
Outline: as §2

| Variant | FACS-Seq fitted mean (log10) ((6R,S)-folinic acid [1]) | normalized RNA/DNA level without ligand (log10) ((6R,S)-folinic acid [2]) | FACS-Seq fitted mean (log10) ((6R,S)-folinic acid [3]) | normalized RNA/DNA level with ligand (log10) ((6R,S)-folinic acid [4]) |
| --- | --- | --- | --- | --- |
| GCUGUCACCGGUGCUUGGUACGUUAUAUUCAGCCGGUCUGAUGAGUCUGGUAGUAGACGAAACAGC [GGUAGU] | 0.312 ± 0.15 | 1.988 ± 0.0021 | 0.316 ± 0.16 | 2.01 ± 0.055 |
| GCUGUCACCGGUGCUUGGUACGUUAUAUUCAGCCGGUCUGAUGAGUCUGGUAUGAGACGAAACAGC [GGUAUG] | 0.288 ± 0.015 | 1.986 ± 0.01 | 0.241 ± 0.14 | 2.01 ± 0.021 |
| GCUGUCACCGGUGCUUGGUACGUUAUAUUCAGCCGGUCUGAUGAGUCUGGUAUAAGACGAAACAGC [GGUAUA] | 0.316 ± 0.031 | 1.987 ± 0.0071 | 0.271 ± 0.15 | 2 ± 0.032 |
| GCUGUCACCGGUGCUUGGUACGUUAUAUUCAGCCGGUCUGAUGAGUCUUGUAUCAGACGAAACAGC [UGUAUC] | -0.0452 ± 0.058 | 2.016 ± 0.019 | -0.247 ± 0.051 | 1.99 ± 0.028 |
| GCUGUCACCGGUGCUUGGUACGUUAUAUUCAGCCGGUCUGAUGAGUCUUGUAUUAGACGAAACAGC [UGUAUU] | 0.438 ± 0.16 | 1.9737 ± 0.0017 | 0.253 ± 0.086 | 2.01 ± 0.032 |
| GCUGUCACCGGUGCUUGGUACGUUAUAUUCAGCCGGUCUGAUGAGUCUUGUAUGAGACGAAACAGC [UGUAUG] | -0.0525 ± 0.085 | 1.707 ± 0.007 | 0.265 ± 0.086 | 1.96 ± 0.039 |
| GCUGUCACCGGUGCUUGGUACGUUAUAUUCAGCCGGUCUGAUGAGUCUCGUAUAAGACGAAACAGC [CGUAUA] | 0.0787 ± 0.09 | 1.93 ± 0.025 | 0.189 ± 0.17 | 1.983 ± 0.016 |
| GCUGUCACCGGUGCUUGGUACGUUAUAUUCAGCCGGUCUGAUGAGUCUCGUAUUAGACGAAACAGC [CGUAUU] | -0.147 ± 0.033 | 2.034 ± 0.011 | 0.0205 ± 0.0068 | 2.03 ± 0.037 |
| GCUGUCACCGGUGCUUGGUACGUUAUAUUCAGCCGGUCUGAUGAGUCUAGUAUGAGACGAAACAGC [AGUAUG] | 0.41 ± 0.013 | 1.89 ± 0.022 | 0.586 ± 0.1 | 1.994 ± 0.019 |
| GCUGUCACCGGUGCUUGGUACGUUAUAUUCAGCCGGUCUGAUGAGUCUAGUCGAAGACGAAACAGC [AGUCGA] | 0.3437 ± 0.0018 | 1.974 ± 0.012 | 0.506 ± 0.09 | 2.021 ± 0.0067 |
| GCUGUCACCGGUGCUUGGUACGUUAUAUUCAGCCGGUCUGAUGAGUCUAGUCGUAGACGAAACAGC [AGUCGU] | 0.209 ± 0.14 | 1.979 ± 0.013 | -0.0314 ± 0.084 | 2.03 ± 0.029 |
| GCUGUCACCGGUGCUUGGUACGUUAUAUUCAGCCGGUCUGAUGAGUCUCGUCUAAGACGAAACAGC [CGUCUA] | -0.111 ± 0.073 | 2.0035 ± 0.0014 | 0.325 ± 0.29 | 2.033 ± 0.0082 |
| GCUGUCACCGGUGCUUGGUACGUUAUAUUCAGCCGGUCUGAUGAGUCUUGUAGCAGACGAAACAGC [UGUAGC] | 0.389 ± 0.16 | 1.907 ± 0.01 | 0.362 ± 0.049 | 1.988 ± 0.016 |
| GCUGUCACCGGUGCUUGGUACGUUAUAUUCAGCCGGUCUGAUGAGUCUUGUAGGAGACGAAACAGC [UGUAGG] | 0.342 ± 0.083 | 1.61 ± 0.018 | 0.855 ± 0.1 | 1.92 ± 0.033 |
| GCUGUCACCGGUGCUUGGUACGUUAUAUUCAGCCGGUCUGAUGAGUCUUGUACUAGACGAAACAGC [UGUACU] | 0.366 ± 0.027 | 1.99 ± 0.026 | 0.253 ± 0.17 | 2.021 ± 0.0023 |
| GCUGUCACCGGUGCUUGGUACGUUAUAUUCAGCCGGUCUGAUGAGUCUUGUCCAAGACGAAACAGC [UGUCCA] | 0.433 ± 0.12 | 2.02 ± 0.025 | 0.395 ± 0.04 | 2.024 ± 0.014 |
| GCUGUCACCGGUGCUUGGUACGUUAUAUUCAGCCGGUCUGAUGAGUCUAGUACGAGACGAAACAGC [AGUACG] | 0.0935 ± 0.062 | 1.935 ± 0.0077 | -0.00576 ± 0.14 | 2.03 ± 0.045 |
| GCUGUCACCGGUGCUUGGUACGUUAUAUUCAGCCGGUCUGAUGAGUCUGGUCCAAGACGAAACAGC [GGUCCA] | 0.532 ± 0.025 | 2.029 ± 0.0028 | 0.724 ± 0.15 | 2.01 ± 0.07 |
| GCUGUCACCGGUGCUUGGUACGUUAUAUUCAGCCGGUCUGAUGAGUCUUGUCGGAGACGAAACAGC [UGUCGG] | 0.0192 ± 0.057 | 1.66 ± 0.015 | 0.166 ± 0.29 | 1.94 ± 0.043 |
| GCUGUCACCGGUGCUUGGUACGUUAUAUUCAGCCGGUCUGAUGAGUCUUGUCGUAGACGAAACAGC [UGUCGU] | 0.152 ± 0.076 | 1.95 ± 0.012 | 0.267 ± 0.017 | 2 ± 0.021 |
| GCUGUCACCGGUGCUUGGUACGUUAUAUUCAGCCGGUCUGAUGAGUCUAGUCAAAGACGAAACAGC [AGUCAA] | 0.156 ± 0.066 | 1.962 ± 0.0074 | 0.225 ± 0.046 | 1.96 ± 0.053 |
